Test results as given in PMC7145599, “Cooperative DNA binding by proteins through DNA shape complementarity” (Nucleic Acids Research, 2019).

How the values were obtained:
[1] = tested on: Xis-Arg39Ala (phage lambda); assay: EMSA; conditions: no Fis; cooperative; EMSA: 20 mM HEPES pH 7.5, 0.1 M NaCl, 5% glycerol, 500 ug/ml BSA, 1 mM EDTA, 1 mM DTT, 25 C; competitor 50 ug/ml poly dI/dC (34 bp), 5 ug/ml poly dI/dC (Fig 2) …
[2] = tested on: Xis-Arg39Lys (phage lambda); assay: EMSA; conditions: no Fis; stepwise, non-cooperative; EMSA: 20 mM HEPES pH 7.5, 0.1 M NaCl, 5% glycerol, 500 ug/ml BSA, 1 mM EDTA, 1 mM DTT, 25 C; competitor 50 ug/ml poly dI/dC (34 bp), 5 ug/ml poly dI/dC (Fig 2) …
[3] = molecular target: Fis;Xis-wt (phage lambda) (UniProt P0A6R3); assay: EMSA; conditions: apparent Kd of Xis for Fis-bound DNA; 4 nM Fis; EMSA: 20 mM HEPES pH 7.5, 0.1 M NaCl, 5% glycerol, 500 ug/ml BSA, 1 mM EDTA, 1 mM DTT, 25 C; competitor 50 ug/ml poly dI/dC (34 bp), 5 ug/ml poly dI/dC (Fig 2) …
Fis;Xis1-55 [4] = molecular target: T1, Fis;Xis1-55 (Escherichia coli?;phage lambda, UniProt P0A6R3;P03699 1-98;1-55, |C28S); assay: X-ray crystallography; FX2, 2.7 A; EMSA: 20 mM HEPES pH 7.5, 0.1 M NaCl, 5% glycerol, 500 ug/ml BSA, 1 mM EDTA, 1 mM DTT, 25 C; competitor 50 ug/ml poly dI/dC (34 bp), 5 ug/ml poly dI/dC (Fig 2); conditions: protein: recombinant;recombinant; tags: ;; chain copies: 2;1
[5] = molecular target: the molecule itself; assay: crystal structure; Fis dimer and Xis^1-55 co-bound to 27 bp DNA duplexes (FX2, FX1-2-1Xis, FX1-2-2Xis); complexes formed in 20 mM Tris-HCl pH 7.5, 200 mM Na acetate; crystals grown at 4°C in 0.1 M HEPES pH 7-7.5, 15% PEG4000
Fis;Xis1-55 [6] = molecular target: T1, Fis;Xis1-55; assay: X-ray crystallography (Br anomalous); EMSA: 20 mM HEPES pH 7.5, 0.1 M NaCl, 5% glycerol, 500 ug/ml BSA, 1 mM EDTA, 1 mM DTT, 25 C; competitor 50 ug/ml poly dI/dC (34 bp), 5 ug/ml poly dI/dC (Fig 2); conditions: protein: recombinant;recombinant; tags: ;; chain copies: 2;1
Fis;Xis1-55 [7] = molecular target: T1, Fis;Xis1-55; assay: X-ray crystallography; FX1-2-1Xis, 3.60 A; Xis at X2; EMSA: 20 mM HEPES pH 7.5, 0.1 M NaCl, 5% glycerol, 500 ug/ml BSA, 1 mM EDTA, 1 mM DTT, 25 C; competitor 50 ug/ml poly dI/dC (34 bp), 5 ug/ml poly dI/dC (Fig 2); conditions: protein: recombinant;recombinant; tags: ;; chain copies: 2;1
[8] = molecular target: Fis;Xis1-55 (two protomers) (Escherichia coli?;phage lambda, UniProt P0A6R3;P03699 1-98;1-55, |C28S); assay: X-ray crystallography; FX1-2-2Xis, 3.30 A; second Xis over X1 in reverse orientation; EMSA: 20 mM HEPES pH 7.5, 0.1 M NaCl, 5% glycerol, 500 ug/ml BSA, 1 mM EDTA, 1 mM DTT, 25 C; competitor 50 ug/ml poly dI/dC (34 bp), 5 ug/ml poly dI/dC (Fig 2); conditions: protein: recombinant;recombinant; tags: ;; chain copies: 2;2

## attR 263 bp
[1]
  binding signal (fold lower affinity than Xis-wt): 15
[2]
  binding signal (fold lower affinity than Xis-wt): 10

## F-X2 34 bp (CA, native)
[3]
  Kd: 400 nM

B1: FX2 27 bp (dsDNA)
DNA 1: AATTTTGCATAAAAAACAGACTACATT
DNA 2: AATGTAGTCTGTTTTTTATGCAAAATT
Fis;Xis1-55 [4]
  binding result: binds

B2: Escherichia coli Fis protein (natural protein)
chain: MFEQRVNSDVLTVSTVNSQDQVTQKPLRDSVKQALKNYFAQLNGQDVNDLYELVLAEVEQPLLDMVMQYTRGNQTRAALMMGINRGTLRKKLKKYGMN
notes: Fis, bacterial nucleoid / DNA architectural protein of Escherichia coli; the N-terminal beta-hairpin arms are not resolved in the crystals; also called Fis dimer
[5]
  stoichiometry N: 2

B3: Xis^1-55 (phage lambda Xis residues 1-55 with a cysteine to serine substitution at residue 28) (domain or fragment, UniProt P03699 1-55, looked up)
chain: MYLTLQEWNARQRRPRSLETVRRWVRESRIFPPPVKDGREYLFHESAVKVDLNRP
notes: Used for crystallography; The full-length Cys28Ser xis gene (pRJ2178, pET11a) was used for the gel shift assays on DNA, which are not written here; also called Xis protomer; Xis monomer
[5]
  binding result: binds

B4: FX1-2 27 bp 5-BrdU (dsDNA)
DNA 1: AATGTTGTGTTTTTAACAGACTACATT
DNA 2: AATGTAGTCTGTTAAAAACACAACATT
modifications: 5-bromodeoxyuridine at asterisked T positions (incl. nt 8 and 12 from the central T)
Fis;Xis1-55 [6]
  binding result: binds

B5: FX1-2 27 bp (dsDNA)
DNA 1: AATGTTGTGTTTTTAACAGACTACATT
DNA 2: AATGTAGTCTGTTAAAAACACAACATT
Fis;Xis1-55 [7]
  binding result: binds
[8]
  binding result: binds
